Earlier results as cited in paper PMC3937454.

What was measured:
[1] = target: Lys146 (UniProt position 164, LRKLRKRLLRD); details: not stated (lipid-free or lipid-bound state not specified for the quoted values)
[2] = target: Lys143 (UniProt position 161, ASHLRKLRKRL); details: not stated (lipid-free or lipid-bound state not specified for the quoted values)

Apolipoprotein E3 (apoE3) (Homo sapiens)
pKa [1]: 9.2 | pKa [2]: 9.5
